Measured values taken from PMC7665024, “Anti-apoptotic BCL-2 regulation by changes in dynamics of its long unstructured loop” (Communications Biology, 2020).
“Also recorded” adds a separate entry of the source.

Legend:
[1] = system: BCL-2 (EEE or WT):BimBH3, BAX-induced MOMP; assay: Cytochrome c release assay at varying amount of ABT-199; type: biochemical, mouse
Experimental: (§1) Fig. 2 In vitro assays for evaluating BCL-2 activity. a Cytochrome c release assay with various BCL-2 mutants at varying concentrations. All of the release amounts are normalized to the result caused by the BimBH3-induced BAX activation (lane 3). […] GUVs provide a MOM-like environment devoid of endogenous mitochondrial proteins.
The cytochrome c release assays were performed at varying amounts of ABT-199.
A Dounce homogenizer was used with 20 strokes to homogenize mouse liver tissue (0.2 mg). The mitochondria fraction was separated using centrifugation according to the Mitochondria Isolation Kit (Thermo Scientific). Mitochondria Assay Buffer A (MAB A) (200 mM mannitol, 68 mM sucrose, 10 mM HEPES, 110 mM KCl, 1 mM EDTA, […], 0.1% BSA, protease inhibitor) was used to wash the mitochondria fraction, followed by centrifugation at 12,000 × g. The pellet was collected and resuspended using enough MAB B (i.e., MBA A without 0.1% BSA) and then quantified by bradford assay (Bio-Rad) to yield a final protein content of the mitochondrial fraction ~3 mg/mL. […] Quantification of IB was done using ImageJ software (version 1.49, NIH). The fraction of cytochrome c released (%) is calculated by (I–I0)/(Imax–I0)×100%, where Imax and I0 are the analyzed intensities of cytochrome c with and without activated BAX, respectively. […]

[2] = system: BCL-2-dependent tumors; details: cited from earlier work
Source text: It is worth noting that the binding groove is also responsible for the engagement of an orally bioavailable small molecule ABT-199 (Venetoclax)[8],[13]. […] ABT-199 can displace the bound pro-apoptotic activator from the groove of BCL-2 efficiently and, consequently, cause the release of pro-apoptotic activators, promoting MOMP and apoptosis. This study will use ABT-199 to examine whether the BCL-2 mutants studied here have the same response as FL-BCL-2 to ABT-199.

[3] = system: BAX-induced MOMP, isolated mitochondria; assay: In vitro cytochrome c release assay, isolated mitochondria (BCL-2 mutants); type: biochemical, mouse; details: for Cytochrome c release, Average: Bax+BimBH3 = 100, mean of n = 6
Source text: To verify this implication, we performed in vitro cytochrome c release assay using isolated mitochondria. […] Lane 3 (Fig. 2a) is a positive control for the cytochrome c release assays. […] (More experimental results in support of the observed BCL-2 activity are given in Supplementary Fig. 3.)
as §1
A Dounce homogenizer was used with 20 strokes to homogenize mouse liver tissue (0.2 mg). The mitochondria fraction was separated using centrifugation according to the Mitochondria Isolation Kit (Thermo Scientific). Mitochondria Assay Buffer A (MAB A) (200 mM mannitol, 68 mM sucrose, 10 mM HEPES, 110 mM KCl, 1 mM EDTA, […], 0.1% BSA, protease inhibitor) was used to wash the mitochondria fraction, followed by centrifugation at 12,000 × g. The pellet was collected and resuspended using enough MAB B (i.e., MBA A without 0.1% BSA) and then quantified by bradford assay (Bio-Rad) to yield a final protein content of the mitochondrial fraction ~3 mg/mL. The final mitochondria fraction was placed on ice for further downstream processing or stored at −80 °C with additional 300 mM trehalose for future use[38]. […] The mixture was then incubated with BAX (0.1 μM) and 10 μL of the mitochondrial fraction ([…]) for 0.5 h at 37 °C. Final volume was adjusted to 30 μL. Following centrifugation at 12,000×g for 10 min, the supernatant was subjected to subsequent immunoblotting (IB). Quantification of IB was done using ImageJ software (version 1.49, NIH). The fraction of cytochrome c released (%) is calculated by (I–I0)/(Imax–I0)×100%, where Imax and I0 are the analyzed intensities of cytochrome c with and without activated BAX, respectively.
Samples were resolved by SDS–PAGE (15%) and electroblotted onto a 0.45 μm PVDF membrane (GE Healthcare). Primary antibodies used in this study included rabbit anti-BAX N20 (Santa Cruz Biotechnology), mouse anti-BCL-2(C2) (Santa Cruz Biotechnology) and mouse anti-cytochrome c antibodies (clone 7H8.2C12, Millipore). Detection was achieved using sheep anti-mouse IgG HRP (GE Healthcare) and donkey anti-rabbit IgG HRP (GE Healthcare) secondary antibodies. Proteins were visualized by 4CN Plus Chromogenic Substrate (PerkinElmer).

[4] = system: apoptotic cell death; details: phosphomimetic BCL-2; cited from earlier work
Source text: However, the three phosphorylation-related residues are in a 65-residue-long, highly flexible loop domain (denoted by FLD, herein; Fig. 1a) that is often removed for ...

[5] = system: trypsin; assay: Limited proteolysis by trypsin; details: BCL-2 20 μM, trypsin 0.04-9.44 μM, 1 h, room temperature, SDS-PAGE
Experimental: Fig. 3 Structural differences between WT and EEE. a An illustration of mutation sites prepared for spin-labeling ESR studies. b Distance distributions of various double-spin-labeled BCL-2 (WT or EEE) mutants are determined from the experimental DEER data. […] As highlighted, the displacements of α1 and α2 account for the major differences. d An illustration highlighting the positions of α2–α7 and the binding groove. Structures of WT and EEE are colored as in c. Helices α4–α7 change little between the WT and EEE. The displacement of α2 is critical to the change in the local environment of the binding groove. e Limited proteolysis of BCL-2 (20 μM) analyzed on SDS–PAGE. Trypsin concentrations were 0.04, 0.11, 0.34, 1.03, 3.11, 9.44 μM. Incubation time was 1 h at room temperature. It confirms that tertiary conformations of WT versus EEE are indeed different.
BCL-2 conformational change was assessed by limited proteolysis using trypsin (MERCK). In brief, 5 µg BCL-2 (WT or EEE) was digested at enzyme/substrate ratios ranging from 1:2 to 1:461 for 1 h at room temperature. Proteolysis was quenched by adding 1 mM PMSF, and then samples were confirmed by SDS–PAGE with Coomassie blue staining.

[6] = BAX 0.1 µM, BimBH3 2 µM, Fig. 2a

CC1(C)CCC(CN2CCN(c3ccc(C(=O)NS(=O)(=O)c4ccc(NCC5CCOCC5)c([N+](=O)[O-])c4)c(Oc4cnc5[nH]ccc5c4)c3)CC2)=C(c2ccc(Cl)cc2)C1 [ABT-199, Venetoclax, reference compound]
effect on cytochrome c release (in words) ([1]; ABT-199 4–30 µM added to pre-incubated BCL-2 (EEE or WT), BimBH3 2 µM, BAX 0.1 µM, mitochondria, Fig. 2b): the greater the release of cytochrome c was detected
displacement of BimBH3 from BCL-2 (in words) ([1]; BCL-2 EEE or WT): can displace BimBH3 from BCL-2 (either EEE or WT)
inhibition of tumor growth (in words) [2]: potently inhibits the growth of BCL-2-dependent tumors

BAX: full-length mouse BAX; in FRET the single-cysteine variant BAX136C labeled with AL488 [reference compound]
inhibition of BAX-induced MOMP / cytochrome c release (in words) [3, 6]: inactive

B1: EEE (protein)
chain: MAHAGRTGYDNREIVMKYIHYKLSQRGYEWDAGDVGAAPPGAAPAPGIFSSQPGHTPHPAASRDPVAREEPLQTPAAPGAAAGPALEPVPPVVHLTLRQAGDDFSRRYRRDFAEMSSQLHLTPFTARGRFATVVEELFRDGVNWGRIVAFFEFGGVMCVESVNREMSPLVDNIALWMTEYLNRHLHTWIQDNGGWDAFVELYGPSMRPLFDFSWLSL
modifications: Pacific Blue (maleimide) on the native cysteine 158; left off: His6, C-terminal, state not stated
protection against apoptotic cell death (in words) [4]: enhanced to protect cells against apoptotic cell death
susceptibility to trypsin proteolysis (in words) [5]: relatively resistant
capacity to inhibit BAX-induced MOMP compared with S70E and WT (in words) [3, 6]: evidently greater than those of S70E (lanes 7–9) and WT (lanes 10–12); also recorded: the most potent in inhibiting the BAX-induced MOMP
inhibition of BAX-induced MOMP / cytochrome c release (in words) [3, 6]: largely inhibited
Cytochrome c release, Average ([3]; BAX+BimBH3 + 2uM BCL-2 protein): 66.3319
Cytochrome c release, Average ([3]; BAX+BimBH3 + 4uM BCL-2 protein): 14.0555
Cytochrome c release, Average ([3]; BAX+BimBH3 + 6uM BCL-2 protein): 8.953
